The values below come from doi:10.1101/2020.02.12.946293 (bioRxiv, 2020).

For the test, the target named is hMLH1-hMLH3 (human, UniProt P40692;Q9UHC1). Briefly: pull-down.
Chain of hMLH1-hMLH3 (P40692 whole entry, chain 1 of 2): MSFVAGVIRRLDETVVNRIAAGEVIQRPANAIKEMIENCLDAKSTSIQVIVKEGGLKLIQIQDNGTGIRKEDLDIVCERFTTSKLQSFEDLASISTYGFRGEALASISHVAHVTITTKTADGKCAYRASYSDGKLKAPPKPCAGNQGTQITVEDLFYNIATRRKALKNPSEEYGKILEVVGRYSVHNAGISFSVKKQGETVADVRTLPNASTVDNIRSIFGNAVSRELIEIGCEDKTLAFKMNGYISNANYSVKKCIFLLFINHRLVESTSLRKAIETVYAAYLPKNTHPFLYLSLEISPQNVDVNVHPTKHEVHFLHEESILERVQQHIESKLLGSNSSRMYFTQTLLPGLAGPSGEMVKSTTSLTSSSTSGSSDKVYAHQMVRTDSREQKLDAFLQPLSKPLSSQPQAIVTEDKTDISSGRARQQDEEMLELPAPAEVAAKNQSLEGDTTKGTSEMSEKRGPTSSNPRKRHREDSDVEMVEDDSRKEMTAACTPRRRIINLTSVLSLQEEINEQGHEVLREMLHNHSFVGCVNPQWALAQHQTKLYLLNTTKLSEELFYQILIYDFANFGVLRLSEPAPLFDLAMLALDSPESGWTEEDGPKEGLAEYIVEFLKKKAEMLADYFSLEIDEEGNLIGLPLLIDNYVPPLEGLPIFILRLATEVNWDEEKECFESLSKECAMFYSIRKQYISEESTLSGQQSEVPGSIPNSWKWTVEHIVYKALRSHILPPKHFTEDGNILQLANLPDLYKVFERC
Chain of hMLH1-hMLH3 (Q9UHC1 whole entry, chain 2 of 2): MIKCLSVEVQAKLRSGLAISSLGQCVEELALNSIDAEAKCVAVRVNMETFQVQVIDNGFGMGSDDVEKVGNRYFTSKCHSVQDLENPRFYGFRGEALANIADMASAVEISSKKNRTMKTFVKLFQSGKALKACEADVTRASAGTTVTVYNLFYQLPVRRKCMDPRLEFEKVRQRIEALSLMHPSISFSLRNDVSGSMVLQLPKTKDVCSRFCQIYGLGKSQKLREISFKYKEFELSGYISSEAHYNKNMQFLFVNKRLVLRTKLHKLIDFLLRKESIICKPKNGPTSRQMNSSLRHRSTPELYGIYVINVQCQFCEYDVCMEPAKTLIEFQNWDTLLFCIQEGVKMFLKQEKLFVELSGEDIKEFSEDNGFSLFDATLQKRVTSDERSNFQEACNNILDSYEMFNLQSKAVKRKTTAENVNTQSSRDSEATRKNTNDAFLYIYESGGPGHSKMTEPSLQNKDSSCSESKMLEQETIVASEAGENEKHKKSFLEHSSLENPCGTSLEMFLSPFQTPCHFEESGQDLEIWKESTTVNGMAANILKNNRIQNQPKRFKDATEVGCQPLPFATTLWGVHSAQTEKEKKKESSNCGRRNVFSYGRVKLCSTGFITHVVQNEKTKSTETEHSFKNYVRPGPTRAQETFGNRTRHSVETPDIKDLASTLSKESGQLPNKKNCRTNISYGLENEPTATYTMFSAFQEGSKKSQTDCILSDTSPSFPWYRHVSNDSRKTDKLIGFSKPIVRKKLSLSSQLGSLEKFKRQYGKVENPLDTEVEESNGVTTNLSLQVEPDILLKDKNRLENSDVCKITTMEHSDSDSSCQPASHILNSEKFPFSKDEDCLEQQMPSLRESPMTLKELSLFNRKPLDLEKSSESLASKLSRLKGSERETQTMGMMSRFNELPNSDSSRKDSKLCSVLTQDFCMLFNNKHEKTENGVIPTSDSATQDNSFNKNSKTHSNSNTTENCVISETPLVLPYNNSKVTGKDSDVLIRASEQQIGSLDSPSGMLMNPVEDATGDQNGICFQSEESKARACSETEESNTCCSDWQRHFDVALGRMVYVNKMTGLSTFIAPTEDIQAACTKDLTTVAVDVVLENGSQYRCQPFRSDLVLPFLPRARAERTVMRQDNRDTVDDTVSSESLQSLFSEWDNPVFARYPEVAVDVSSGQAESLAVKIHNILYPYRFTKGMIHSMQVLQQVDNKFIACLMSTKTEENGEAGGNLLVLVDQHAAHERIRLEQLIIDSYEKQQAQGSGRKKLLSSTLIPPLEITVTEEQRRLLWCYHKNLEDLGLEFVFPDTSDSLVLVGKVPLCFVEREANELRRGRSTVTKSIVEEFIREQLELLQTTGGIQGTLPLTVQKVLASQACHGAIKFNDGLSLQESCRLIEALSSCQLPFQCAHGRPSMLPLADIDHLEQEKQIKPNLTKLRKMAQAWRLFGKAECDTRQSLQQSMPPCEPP

B1: hEXO1(D173A) (enzyme)
chain: MGIQGLLQFIKEASEPIHVRKYKGQVVAVDTYCWLHKGAIACAEKLAKGEPTDRYVGFCMKFVNMLLSHGIKPILVFDGCTLPSKKEVERSRRERRQANLLKGKQLLREGKVSEARECFTRSINITHAMAHKVIKAARSQGVDCLVAPYEADAQLAYLNKAGIVQAIITEDSALLAFGCKKVILKMDQFGNGLEIDQARLGMCRQLGDVFTEEKFRYMCILSGCDYLSSLRGIGLAKACKVLRLANNPDIVKVIKKIGHYLKMNITVPEDYINGFIRANNTFLYQLVFDPIKRKLIPLNAYEDDVDPETLSYAGQYVDDSIALQIALGNKDINTFEQIDDYNPDTAMPAHSRSHSWDDKTCQKSANVSSIWHRNYSPRPESGTVSDAPQLKENPSTVGVERVISTKGLNLPRKSSIVKRPRSAELSEDDLLSQYSLSFTKKTKKNSSEGNKSLSFSEVFVPDLVNGPTNKKSVSTPPRTRNKFATFLQRKNEESGAVVVPGTRSRFFCSSDSTDCVSNKVSIQPLDETAVTDKENNLHESEYGDQEGKRLVDTDVARNSSDDIPNNHIPGDHIPDKATVFTDEESYSFESSKFTRTISPPTLGTLRSCFSWSGGLGDFSRTPSPSPSTALQQFRRKSDSPTSLPENNMSDVSQLKSEESSDDESHPLREEACSSQSQESGEFSLQSSNASKLSQCSSKDSDSEESDCNIKLLDSQSDQTSKLRLSHFSKKDTPLRNKVPGLYKSSSADSLSTTKIKPLGPARASGLSKKPASIQKRKHHNAENKPGLQIKLNELWKNFGFKKDSEKLPPCKKPLSPVRDNIQLTPEAEEDIFNKPECGRVQRAIFQ
For the molecule B1, the binding result is given as “binds”.
